Reference: patent US20120100140A1 (Biogen, published 2012)
Blank lines part the entries; values can stand above or below the binder they belong to.

Legend:
CD64 (FcγRI) [1] = molecular target: T1, CD64 (FcγRI) (UniProt P12314 16-288, limits assumed); assay: solution affinity SPR: antibody titrated into CD64, inhibition of CD64 binding to immobilized IgG1 MAb; average of two titrations
T1 construct: Soluble Fc receptor used in solution; source and construct not described

CD64 (FcγRI) [2] = molecular target: T1, CD64 (FcγRI); assay: solution affinity SPR: inhibition of CD64 binding to immobilized IgG1 MAb
CD16 (FcγRIIIa V158) = molecular target: T2, CD16 (FcγRIIIa V158) (UniProt P08637 17-208, limits assumed); assay: solution affinity SPR: antibody titrated into CD16, inhibition of CD16 binding to immobilized IgG1 MAb; average of two titrations
T2 construct: V158 allotype as printed; source and construct not described; also called Fc gamma III receptor
T2 sequence (P08637 17-208 F176V limits assumed): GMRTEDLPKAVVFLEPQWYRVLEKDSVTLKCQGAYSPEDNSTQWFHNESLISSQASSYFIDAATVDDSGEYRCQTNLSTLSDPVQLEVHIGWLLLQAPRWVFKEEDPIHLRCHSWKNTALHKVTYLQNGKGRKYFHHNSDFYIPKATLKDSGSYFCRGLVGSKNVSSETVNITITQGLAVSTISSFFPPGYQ

T1 sequence (P12314 16-288 limits assumed): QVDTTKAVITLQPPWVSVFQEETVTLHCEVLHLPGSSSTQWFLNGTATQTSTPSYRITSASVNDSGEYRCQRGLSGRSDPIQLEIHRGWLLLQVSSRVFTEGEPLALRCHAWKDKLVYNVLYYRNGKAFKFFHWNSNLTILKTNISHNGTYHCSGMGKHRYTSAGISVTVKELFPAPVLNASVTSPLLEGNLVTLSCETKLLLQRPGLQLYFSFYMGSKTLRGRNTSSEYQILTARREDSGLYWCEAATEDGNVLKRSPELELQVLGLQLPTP

IC50 (CD64 (FcγRI) [1]): 3020 µM
B1: pEAG2300 (hu5c8, IgG4 chimeric hinge + IgG1 CH3, glycosylated) (antibody)
chain 1: QVQLVQSGAEVVKPGASVKLSCKASGYIFTSYYMYWVKQAPGQGLEWIGEINPSNGDTNFNEKFKSKATLTVDKSASTAYMELSSLRSEDTAVYYCTRSDGRNDMDSWGQGTLVTVSSASTKGPSVFPLAPCSRSTSESTAALGCLVKDYFPEPVTVSWNSGALTSGVHTFPAVLQSSGLYSLSSVVTVPSSSLGTKTYTCNVDHKPSNTKVDKRVESKYGPPCPPCPAPPVAGPSVFLFPPKPKDTLMISRTPEVTCVVVDVSQEDPEVQFNWYVDGVEVHNAKTKPREEQFNSTYRVVSVLTVLHQDWLNGKEYKCKVSNKGLPSSIEKTISKAKGQPREPQVYTLPPSRDELTKNQVSLTCLVKGFYPSDIAVEWESNGQPENNYKTTPPVLDSDGSFFLYSKLTVDKSRWQQGNVFSCSVMHEALHNHYTQKSLSLSPG
chain 2: DIVLTQSPATLSVSPGERATISCRASQRVSSSTYSYMHWYQQKPGQPPKLLIKYASNLESGVPARFSGSGSGTDFTLTISSVEPEDFATYYCQHSWEIPPTFGGGTKLEIKRTVAAPSVFIFPPSDEQLKSGTASVVCLLNNFYPREAKVQWKVDNALQSGNSQESVTEQDSKDSTYSLSSTLTLSKADYEKHKVYACEVTHQGLSSPVTKSFNRGEC

IC50 (CD64 (FcγRI) [2]): ~8 µM
IC50 (CD64 (FcγRI) [1]): 11.2 µM
IC50 (CD16 (FcγRIIIa V158)): 564 µM
B2: EC300 (hu5c8 IgG4.P S228P, T307P, glycosylated) (antibody)
chain 1: not shown
chain 2: B1 chain 2

IC50 (CD64 (FcγRI) [1]): 739 µM
B3: IgG4.P T299A (hu5c8 aglycosylated IgG4.P S228P, T299A) (antibody)
chain 1: not shown
chain 2: B1 chain 2
